Data reported in paper PMC5755574.

Target: Alcaligenes xylosoxidans copper nitrite reductase (Alcaligenes xylosoxidans)
Experiment: crystal structure; as-isolated AxNiR crystals, space group R3, one monomer in the asymmetric unit, trimer formed by crystal symmetry; SRX resting state at 1.6 Å (BL41XU, SPring-8, cryo); the SF-ROX structure (SACLA XFEL, 100 K, 1.6 Å) from the same batch of crystals has near-identical global architecture

- stoichiometry N: 3
Substance: Alcaligenes xylosoxidans copper nitrite reductase (enzyme)
